Data from patent US20250332297A1, “DLL3-SPECIFIC BINDING CONSTRUCTS AND THEIR USE IN RADIOTHERAPY” (MOLECULAR PARTNERS AG, priority 2024, published 2025).
Residue numbers refer to the chain shown, from its start.

Assays:
[1] = system: NCI-H82 tumors; test: Efficacy (tumor growth) in NCI-H82 tumor model; type: in vivo, mouse; settings: Dunnett's multiple comparisons test, tumor volume in mm^3, NCI-H82, R2G2 mice
Experimental: To determine the efficacy of radio-labelled (Pb-212) DARPin (MAM279) conjugate in inhibiting the growth of tumors that express DLL3, different dose regimens (single or repeated dose) of the conjugate were tested in a relevant mouse tumor model (NCI-H82).
Animals were under observation daily and 3× per week tumors were measured by caliper. Animals were sacrificed when tumors reached 1500 to 2000 mm^3 or if termination criteria were met. The data were expressed as average+/−SEM of tumor volume in mm^3.
To determine the efficacy of more frequent repeat-dosing of radio-labelled (Pb-212) DARPin (MAM279) conjugate in inhibiting the growth of tumors that express DLL3, a weekly repeat-dosing regimen of the conjugate was tested in a relevant mouse tumor model (NCI-H82).
Corresponding injections of buffer only were done as control. The first weekly injection of radio-labeled molecules was done 14 days after xenografting the NCI-H82 cells. Animals were under observation daily and 3× per week tumors were measured by caliper. Animals were sacrificed when tumors reached 1500 to 2000 mm^3 or if termination criteria were met. The data were expressed as average+/−SEM of tumor volume in mm^3. Results are shown in FIGS. 20A to 20D and Table 23.

[2] = target: T1, Human DLL3 expressed on cells (HEK293T-hDLL3, NCI-H82, SHP-77, MC38-hDLL3) (human, UniProt Q9NYJ7 27-618); test: flow cytometry titration on HEK293T-hDLL3 cells, with HSA
T1 construct: also called DLL3 endogenously expressed on human cells
T1 sequence: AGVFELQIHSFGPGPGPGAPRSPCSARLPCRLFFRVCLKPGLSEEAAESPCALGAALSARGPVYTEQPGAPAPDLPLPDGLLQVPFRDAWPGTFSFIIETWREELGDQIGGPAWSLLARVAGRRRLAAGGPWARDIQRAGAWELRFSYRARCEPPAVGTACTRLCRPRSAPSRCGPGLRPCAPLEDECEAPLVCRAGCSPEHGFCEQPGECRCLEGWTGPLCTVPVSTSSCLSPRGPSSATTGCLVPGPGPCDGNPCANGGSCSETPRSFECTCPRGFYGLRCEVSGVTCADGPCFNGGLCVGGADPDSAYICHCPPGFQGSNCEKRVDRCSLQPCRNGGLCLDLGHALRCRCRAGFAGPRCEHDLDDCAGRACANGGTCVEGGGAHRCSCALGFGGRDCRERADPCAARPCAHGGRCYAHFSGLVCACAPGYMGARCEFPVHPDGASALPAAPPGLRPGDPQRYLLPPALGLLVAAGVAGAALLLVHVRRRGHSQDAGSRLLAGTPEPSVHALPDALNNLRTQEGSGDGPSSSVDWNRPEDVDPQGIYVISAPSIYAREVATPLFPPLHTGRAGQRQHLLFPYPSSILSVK
Experimental: (§1) Cell binding titration assays were performed for selected His-tagged single domain (1 D) and two domain (2D) designed ankyrin repeat proteins to determine binding to human DLL3 expressed on HEK293T-huDLL3 cells in absence and presence of human serum albumin. […] HEK293T-hDLL3 cells are HEK293T cells that were stably transfected to express human DLL3 on their surface.
(§2) In brief, 1×10⁵ cells/well were resuspended in 100 μl DARPin dilution (500 nM, 1:5 serial diluted) and incubated for 1 h at 4° C. Cells were washed twice with PBS and resuspended in 100 μl anti-DARPin antibody (rabbit anti-DARPin 1.4.8) and LIVE/DEAD fixable cell stain (1:1000, Thermo Fisher #L34957). This step was performed in absence and presence of […] Human Serum Albumin (CSL Behring #150570). After incubation and washing, cells were incubated with detection antibody for 30 minutes (Goat […] IgG (H+L), AF647, Thermo Fisher #21445). Cells were fixed (Paraformaldehyde Solution, LucernaChem) and acquired at Attune N×T (Thermo Life Technologies). Raw fcs files were exported and analyzed using FlowJo software. MFI values of live AF647-positive cells were exported from FlowJo and plotted using GraphPad Prism software.

[3] = target: T1, Human DLL3 expressed on cells …; test: flow cytometry titration on HEK293T-hDLL3 cells, without HSA
Experimental: as §1, §2

[4] = system: NCI-H82 tumor model; test: Biodistribution of radio-labelled DARPin conjugates in NCI-H82 tumor model; settings: mouse, in vivo, iv, 0.01 mg/kg
Experimental: NCI-H82 tumor model. R2G2 mice were purchased from Envigo. All studies were conducted under the approval of the institutional IACUC committee. Animals were maintained under specific-pathogen-free (SPF) conditions with daily cycles of light and darkness (12 h/12 h), in line with ethical guidelines. No manipulations were performed during the first 5 days after arrival, to allow the animals to acclimatize to the new environment. All mice were monitored daily for assessment of physical condition and general well-being. NCI-H82 cells were purchased from ATCC (Catalog No. HTB-175). Solid xenografts were established by subcutaneous (SQ) injection of NCI-H82 cells in RPMI media mixed 1:1 with Corning® Matrigel® basement membrane matrix (GFR; Corning, Cat No 354230.). Cells were quantified using Countess cell counter. Each mouse was injected SQ with 5×10^6 NCI-H82 cells in 100 μL RPMI/GFR-Matrigel into the right flank of each mouse. Tumor volumes were estimated three times per week through calipering, according to the formula: volume=0.5×length×width^2 and grown until they reached 200-300 mm^3. Tumor-associated antigen level expressed in tumors, tumor vascularization profile and DLL3 soluble form in mouse serum was tested.
Biodistribution study. […] Radio-labeled (Pb-212) DARPin conjugates were then injected at 0.01 mg/kg (10 μCi DARPin conjugates) into the tail vein of R2G2 mice (females) xenografted subcutaneously (at age of about 7 weeks) with NCI-H82 cells (5 million cells, growth factor reduced Matrigel) and bearing tumors (5-10 mm in diameter). […] Biodistribution was monitored at 4 h and 24h post-injection. Mice were euthanized by CO2 inhalation and cervical dislocation. Blood, spleen, kidneys, liver and tumor were extracted, weighed and the radioactivity was determined with a γ-counter counter (such as Wizard^22470, Perkin Elmer). The data were expressed as the % injected dose/gram (% ID/g).
Radio-labeled (Pb-212) DARPin conjugates were then injected at 0.01 mg/kg (10 μCi DARPin conjugates) into the tail vein of R2G2 mice (females) xenografted subcutaneously (at age of about 7 weeks) with NCI-H82 cells (5 million cells, growth factor reduced Matrigel) and bearing tumors (5-10 mm in diameter). Biodistribution was monitored at 4 h and 24h post-injection. Mice were euthanized by CO2 inhalation and cervical dislocation. Kidneys and tumor were extracted, weighed and the radioactivity was determined with a γ-counter counter (such as Wizard^22470, Perkin Elmer). The data were expressed as the % injected dose/gram (% ID/g) and the tumor to kidney (T:K) ratio was determined.
Radio-labelled (Pb-212) DARPin conjugates were then injected at 0.01 mg/kg (10 μCi DARPin conjugates) (i) into the tail vein of R2G2 mice (females) xenografted subcutaneously (at age of about 7 weeks) with NCI-H82 cells (5 million cells, growth factor reduced Matrigel) and bearing tumors (5-10 mm in diameter), and (ii) into the tail vein of athymic nude mice (females) xenografted subcutaneously (at age of about 7 weeks) with hDLL3-MC38 cells (5 million cells, growth factor reduced Matrigel) and bearing tumors (5-10 mm in diameter). Biodistribution was monitored at 4 h and 24h post-injection. Mice were euthanized by CO2 inhalation and cervical dislocation. Blood, bladder, small intestine, colon, spleen, kidneys, liver, lung, heart, tail and tumor were extracted, weighed and the radioactivity was determined with a γ-counter (such as Wizard^22470, Perkin Elmer). The data were expressed as the % injected dose/gram (% ID/g).

B1: neg. control: negative control DARPin (SEQ ID NO: 26), DLL3-specific domain replaced with non-binding domain, DOTAM-conjugated, Pb-212 labelled (conjugate)
chain: GSDLGKKLLEAARAGQDDEVRELLKAGADVNAKDYFSHTPLHLAARNGHLKIVEVLLKAGADVNAKDFAGKTPLHLAADAGHLEIVEVLLKAGADVNAQDIFGKTPADIAADAGHEDIAEVLQKAAGSPTPTPTTPTPTPTTPTPTPTGSDLGKKLLEAARAGQDDEVRELLKAGADVNAKDKDGYTPLHLAAREGHLEIVEVLLKAGADVNAKDKDGYTPLHLAAREGHLEIVEVLLKAGADVNAQDKSGKTPADLAADAGHEDIAEVLQKAAGSGSC
modifications: DOTAM conjugate, Pb-212 label; Ankyrin repeat protein (control)
Question: Which “Mean Diff.” value ([1]; Buffer only vs. (4 × 10μCi, 1 wk)) does the source give for B1 here?
Answer: Its value is −64.44.

B2: MAM088 (single domain ankyrin repeat protein, His-tagged) (designed binder)
chain: DLGKKLLAAAREGQDDEVRELLKAGADVNAKDIWGQTPLHIAAWFGHLEIVEVLLKAGADVNAKDQTGHTPLHLAAKFGHLEIVEVLLKAGADVNAQDLLGRTPADLAAEEGHEDIAEVLQKAA
notes: also called 1D DARPin; not shown: His-tag
Question: Which EC50 [2] does the source give for B2 here?
Answer: The EC50 was 5.1 nM.

Question: What about the EC50 [3] of the same molecule?
Answer: Its EC50 is 5 nM.

B3: MAM112 (single domain ankyrin repeat protein, His-tagged) (designed binder)
chain: DLGKKLLAAAADGQDDEVRELLQAGADVNAKDLFGYTPLHLAAWRGHLEIVEVLLEAGADVNAKDAAGETPLHLAAWFGHLEIVEVLLEAGADVNAQDVQGKTPADLAAKEGHEDIAEVLQQAA
notes: as for B2
Question: For B3, which EC50 [2] is on record?
Answer: Its EC50 is 4.6 nM.

Question: And the EC50 [3]?
Answer: The EC50 was 4.2 nM.

B4: MAM120: Ankyrin repeat domain specific for DLL3 (SEQ ID NO: 4); single domain (1D) DARPin (protein)
chain: B3 chain with K4T, A8S, E69L, K102V
modifications: Ankyrin repeat domain specific for DLL3 (MAM120)
Question: What does the source list for B4?
Answer: Blood % ID/g ([4]; 4 h): 0.1 % ID/g; Kidneys % ID/g ([4]; 4 h): 65.5 % ID/g; Tumors % ID/g ([4]; 4 h): 2.6 % ID/g; Blood % ID/g ([4]; 24 h): 0.1 % ID/g; Kidneys % ID/g ([4]; 24 h): 47.3 % ID/g; Tumors % ID/g ([4]; 24 h): 2.9 % ID/g

B5: MAM120 (single domain ankyrin repeat protein, His-tagged) (designed binder)
chain: B3 chain with K4T, A8S, E69L, K102V
notes: as for B2
Question: For B5, which EC50 [2] is on record?
Answer: The EC50 was 8 nM.

Question: And the EC50 [3]?
Answer: Its EC50 is 7 nM.

B6: MAM093 (single domain ankyrin repeat protein, His-tagged) (designed binder)
chain: B3 chain with D12Q, Q23K, D27N, E56K, E89K, V99L, Q122K
notes: as for B2
Question: How did the EC50 [2] turn out when B6 was run?
Answer: The EC50 was 5.5 nM.

Question: And the EC50 [3]?
Answer: Its EC50 is 4.9 nM.

B7: Rova conjugate: Rova antibody conjugated with chelator (DOTAM) and labeled with Pb-212, used as control molecule (conjugate, chains of the INN, looked up)
VH: QVQLVQSGAEVKKPGASVKVSCKASGYTFTNYGMNWVRQAPGQGLEWMGWINTYTGEPTYADDFKGRVTMTTDTSTSTAYMELRSLRSDDTAVYYCARIGDSSPSDYWGQGTLVTVSS
VL: EIVMTQSPATLSVSPGERATLSCKASQSVSNDVVWYQQKPGQAPRLLIYYASNRYTGIPARFSGSGSGTEFTLTISSLQSEDFAVYYCQQDYTSPWTFGQGTKLEIK
modifications: DOTAM chelator, 212Pb radiolabel
notes: Rova antibody conjugated with chelator (DOTAM) and labeled with Pb-212, used as control molecule
Question: With B7 as the molecule, how does the “Mean Diff.” value ([1]; Buffer vs. conjugate (1 × 10μCi)) read?
Answer: Its value is 119.6.

Question: What about the “Mean Diff.” value ([1]; Buffer vs. conjugate (4 × 10μCi, injections 2 weeks apart)) of the same molecule?
Answer: Its value is 256.3.

B8: Non-binding DARPin control comprising SEQ ID NO: 21 (designed binder)
chain: DLGKKLLEAARAGQDDEVRELLKAGADVNAKDKDGYTPLHLAAREGHLEIVEVLLKAGADVNAKDKDGYTPLHLAAREGHLEIVEVLLKAGADVNAQDKSGKTPADLAADAGHEDIAEVLQKAA
notes: Negative control on HEK293T-hDLL3 cells
Question: Does B8 bind [3]?
Answer: Result: no binding (tested: 500 nM)
